B6: GST-TPR (GST fusion protein of the TPR domains of KLC1, amino acids 167-541) (other, UniProt O88447 167-541, looked up)
chain: KDSDSSKEPLDDLFPNDEDEPGQGIQHSDSSAAAARQGYEIPARLRTLHNLVIQYASQGRYEVAVPSCKQALEDLEKTSGHDHPDVATMLNILALVYRDQNKYKDAANLLNDALAIREKTLGRDHPAVAATLNNLAVLYGKRGKYKEAEPLCKRALEIREKVLGKDHPDVAKQLNNLALLCQNQGKYEEVEYYYQRALGIYQTKLGPDRTPNVAKTKNNLASCYLKQGKFKQAETLYKEILTRAHEAEFGSVDDENKPIWMHAEEREECKGKQKDGSAFGEYGGWYKACKVDSPTVTTTLKNLGALYRRQGKFEAAETLEEAAMRSRKQGLDNVHKQRVAEVLNDPESMEKRRSRESLNMDVVKYESGPDGGEEA
notes: range 167-541; The range is printed without a hyphen (167541); not shown: glutathione S-transferase

Columns and labels:
[1] = target: B6; assay: GST pull-down, Western blot for the His tag
Procedure: (§1) Briefly, purified GST, GST-KLC1 and GST-KLC2 bound to glutathione agarose beads were incubated with 10 μg of indicated purified fusion protein in 150 μl Buffer B (20 mM Tris-Cl, pH 7.5, 50 mM KCl, 100 mM NaCl, 2 mM CaCl_2, 2 mM MgCl_2, 5 mM DTT, 1% BSA, and protease inhibitors) for 1 hr at 4° C. For the antibody inhibition experiments, the antibody was pre-bound to the beads for 1 hr at 4° C. and then incubated for 1 hr with the indicated protein. The unbound protein (in 150 μl total volume) was saved, and the beads were washed three times with Buffer B. Bound proteins were eluted with 50 μl of elution buffer (50 mM glutathione, 50 mM Tris-Cl, pH 8.0). The bound (50 μl) and unbound (50 μl, i.e., one-third of total volume) proteins were then analyzed by SDS-PAGE followed by Western blotting.
(§2) To test directly if the C-terminus of APP interacts with the TPR domains of KLC, GST pull-down assays were conducted using GST fusion proteins of KLC1 that contained either the TPR domains (GST-TPR) or only the N-terminal coiled-coil region (GST-CC) (See, FIG. 5, Panel E). Purified APP-GFP protein bound to GST-TPR and not to GST-CC or to GST alone. In contrast, a KIF5B construct that contains part of a region previously found to bind to KLC (Diefenbach et al., [1998], supra; and Gauger and Goldstein, [1993], supra) bound to GST-CC, and not to GST-TPR.

GFP alone [2] = target: T1, GFP alone (UniProt P42212 1-238 = GFP, limits assumed); assay: GST pull-down on glutathione agarose beads, Western blot for GFP; also under five buffer conditions
T1 construct: Control
Procedure: as §1
In addition, the binding of APP-GFP or GFP alone to either GST-KLC1 or GST using four other buffers than Buffer B, namely (1) Buffer B without Ca^2+, (2) Buffer B+500 mM NaCl+1% NP-40, (3) Buffer A from sucrose gradients (10 mM HEPES, pH 7.3, 0.5 mM EGTA, 0.5 mM EGTA, 0.5 mM MgCl_2, and (4) PBS (137 mM NaCl, 2.7 mM KCl, 4.3 mM Na_2HPO_4 7 H_2O, 1.4 mM KH_2PO_4) were tested.
To test for direct interactions between the cytoplasmic C-terminal domain of APP and KLC, in vitro binding assays using GST fusion proteins were conducted. […]

GFP alone [3] = target: T1, GFP alone; assay: GST pull-down on glutathione agarose beads, Western blot for GFP
Procedure: as §1
To test for direct interactions between the cytoplasmic C-terminal domain of APP and KLC, in vitro binding assays using GST fusion proteins were conducted. The results are shown in FIG. 5, Panel A. GST fused to full-length KLC1 (GST-KLC1) or full-length KLC2 (GST-KLC2) was incubated with a protein consisting of the C-terminal tail of APP fused to GFP (APP-GFP). APP-GFP bound to both GST-KLC1 and GST-KLC2 but not to GST alone. […]

[4] = target: APP (amyloid precursor protein), endogenous, from mouse brain and sciatic nerve extracts (mouse, UniProt P12023 18-770, limits assumed); assay: co-immunoprecipitation from mouse brain and sciatic nerve extracts, Western blot
Description: Mouse brain (left side of panel; IP brain) or sciatic nerve (right side of panel; Supe) extracts were immunoprecipitated with a no antibody control (No Ab), the 63–90 antibody (which recognizes both KLC1 and KLC2; i.e., kinesin light chains 1 and 2), antibodies to KIF5B (ubiquitous KHC), or APP (C-terminal polyclonal antibody) or synaptotagmin (SYT). Panel B provides results showing the specificity of kinesin-I co-immunoprecipitation with APP. Co-immunoprecipitation of APP with KLC from wild-type (wt) and mutant (−/−) KLC1 brain extracts was done using 63–90 or antibodies specific to either KLC1 or KLC2, and then analyzed by Western blots using either 63–90 or APP (22C11) antibodies. Panel C provides results showing KLC1 dependence of KHC complexes with APP. Co-immunoprecipitation of APP with KHC from wild-type (wt) and mutant (−/−) KLC1 brain extracts were performed using antibodies to three different KHC subunits (KIF5A, KIF5B and KIF5C), and then analyzed by Western blots using either 63–90 or APP (22C11) antibodies, as shown in this Panel. […]
Sufficient quantities of either anti-KLC1 and anti-KLC2 (Rahman et al., [1998], supra), or anti-KIF5A and anti-KIF5B antibodies (Niclas et al., Neuron 12:1059–1072 [1994]) were added to the precleared lysate so as to completely immunoprecipitate the antigens in the lysate. […]

[5] = target: T2, APP-GFP fusion protein (C-terminal 42 amino acids of human APP fused to GFP, from a His-tagged pRSETb-EGFP … (human, UniProt P05067 729-770; P42212 1-238 = GFP); assay: GST pull-down, Western blot for GFP
T2 construct: Expressed in bacteria, purified on Ni-NTA-agarose; also called C-terminal tail of APP fused to GFP; APP C-terminus; not shown: His tag and leader of the pRSETb vector
Procedure: as §1, §2

GFP alone [6] = target: T1, GFP alone; assay: GST pull-down, Western blot for GFP
Procedure: as §1, §2

B1: KIF5B-His fusion protein (amino acids 499-783 of KIF5B, His-tagged, pET-23b) (other, UniProt Q61768 499-783, looked up)
chain: AVNYDQKSQEVEDKTKEYELLSDELNQKSATLASIDAELQKLKEMTNHQKKRAAEMMASLLKDLAEIGIAVGNNDVKQPEGTGMIDEEFTVARLYISKMKSEVKTMVKRCKQLESTQTESNKKMEENEKELAACQLRISQHEAKIKSLTEYLQNVEQKKRQLEESVDSLGEELVQLRAQEKVHEMEKEHLNKVQTANEVKQAVEQQIQSHRETHQKQISSLRDEVEAKEKLITDLQDQNQKMVLEQERLRVEHERLKATDQEKSRKLHELTVMQDRREQARQDLK
notes: range 499-783; also called C-terminal stalk of KIF5B; KIF5B construct; not shown: His tag of vector pET-23b
binding result [1]: no binding

B2: GST-KLC1 (glutathione S-transferase fused to kinesin light chain 1, all but the first seven amino acids) (other, UniProt O88447 8-541, looked up, not shown: a dimerising Fc or GST)
chain: MVYIKEEKLENVTQDEIISKTKQVIQGLEALKNEHNSILQSLLETLKCLKKDDESNLVEEKSSMIRKSLEMLELGLSEAQVMMALSNHLNAVESEKQNVRAQVRRLCQENQWLRDELANTQQKLQKSEQSVAQLEEEKKHLEFMNQLKKYDDDISPSEDKDSDSSKEPLDDLFPNDEDEPGQGIQHSDSSAAAARQGYEIPARLRTLHNLVIQYASQGRYEVAVPSCKQALEDLEKTSGHDHPDVATMLNILALVYRDQNKYKDAANLLNDALAIREKTLGRDHPAVAATLNNLAVLYGKRGKYKEAEPLCKRALEIREKVLGKDHPDVAKQLNNLALLCQNQGKYEEVEYYYQRALGIYQTKLGPDRTPNVAKTKNNLASCYLKQGKFKQAETLYKEILTRAHEAEFGSVDDENKPIWMHAEEREECKGKQKDGSAFGEYGGWYKACKVDSPTVTTTLKNLGALYRRQGKFEAAETLEEAAMRSRKQGLDNVHKQRVAEVLNDPESMEKRRSRESLNMDVVKYESGPDGGEEA
notes: range 8-end; also called GST fused to full-length KLC1
binding result (GFP alone [2]): no binding

B3: GST-KLC2 (glutathione S-transferase fused to kinesin light chain 2, 591 amino acids of the largest cDNA clone) (other, UniProt O88448 9-599, looked up, not shown: a dimerising Fc or GST)
chain: EEKLSQDEIVLGTKAVIQGLETLRGEHRALLAPLASHEAGEAEPGSQERCLLLRRSLEAIELGLGEAQVILALSSHLGAVESEKQKLRAQVRRLVQENQWLREELAGTQQKLQRSEQAVAQLEEEKQHLLFMSQIRKLDEMLPQEEKGDVPKDSLDDLFPNEDEQSPAPSPGGGDVAAQHGGYEIPARLRTLHNLVIQYASQGRYEVAVPLCKQALEDLEKTSGHDHPDVATMLNILALVYRDQNKYKDAAHLLNDALAIREKTLGKDHPAVAATLNNLAVLYGKRGKYKEAEPLCKRALEIREKVLGKFHPDVAKQLSNLALLCQNQGKAEEVEYYYRRALEIYATRLGPDDPNVAKTKNNLASCYLKQGKYQDAETLYKEILTRAHEKEFGSVNGENKPIWMHAEEREESKDKRRDRRPMEYGSWYKACKVDSPTVNTTLRTLGALYRPEGKLEAAHTLEDCASRSRKQGLDPASQTKVVELLKDGSGRGHRRGSRDVAGPQSESDLEESGPAAEWSGDGSGSLRRSGSFGKLRDALRRSSEMLVRKLQGGGPQEPNSRMKRASSLNFLNKSVEEPVQPGGRVFLTAAL
notes: also called GST fused to full-length KLC2
binding result (GFP alone [3]): no binding

B4: synaptophysin, endogenous, mouse extracts (other, UniProt Q62277 1-314, looked up)
chain: MLLLADMDVVNQLVAGGQFRVVKEPLGFVKVLQWVFAIFAFATCGSYTGELRLSVECANKTESALNIEVEFEYPFRLHQVYFDAPSCVKGGTTKIFLVGDYSSSAEFFVTVAVFAFLYSMGALATYIFLQNKYRENNKGPMMDFLATAVFAFMWLVSSSAWAKGLSDVKMATDPENIIKEMPMCRQTGNTCKELRDPVTSGLNTSVVFGFLNLVLWVGNLWFVFKETGWAAPFMRAPPGAPEKQPAPGDAYGDAGYGQGPGGYGPQDSYGPQGGYQPDYGQPASGGGGGYGPQGDYGQQGYGQQGAPTSFSNQM
notes: also called SYP
binding result [4]: no binding

B5: GST-CC (GST fusion protein of the N-terminal coiled coil domain of KLC, amino acids 30-200) (other, UniProt O88447 30-200, looked up)
chain: QVIQGLEALKNEHNSILQSLLETLKCLKKDDESNLVEEKSSMIRKSLEMLELGLSEAQVMMALSNHLNAVESEKQNVRAQVRRLCQENQWLRDELANTQQKLQKSEQSVAQLEEEKKHLEFMNQLKKYDDDISPSEDKDSDSSKEPLDDLFPNDEDEPGQGIQHSDSSAAA
notes: range 30-200; not shown: glutathione S-transferase
binding result [5]: no binding
binding result (GFP alone [6]): no binding

B6
binding result (GFP alone [6]): no binding
